Biological target: Human pro-insulin fused to the Gal4 DNA binding domain (human)
Sequence (P01308 25-110): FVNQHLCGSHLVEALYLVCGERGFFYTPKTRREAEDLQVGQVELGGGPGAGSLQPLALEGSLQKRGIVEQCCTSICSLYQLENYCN

Substance | glucose level of adult S. japonicum worms cultured 24 h with 20% anti-LD1 + anti-LD2 mouse antisera (medium with foetal bovine serum as source of insulin; endogenous receptors), against normal serum [% reduction]
Ligand domain of Schistosoma japonicum insulin receptor 1 (SjIR-1), D59 to E411 (domain or fragment) | 65
Ligand domain of Schistosoma japonicum insulin receptor 2 (SjIR-2), Q7 to K399 (domain or fragment) | 65
